Here are results for two molecules from patent US20220089725A1.

For test [1], the target named is human FCMR on blood cells (human) (UniProt O60667). Kind of test: flow cytometry of fresh human whole blood, isotype control row of the left (2A5) panel; gated subset not stated; FMO row reads 24.7.
Test [2] has the same target. Kind of test: flow cytometry of fresh human whole blood, isotype control row of the right (3F9) panel; gated subset not stated; FMO row reads 24.7.
For test [3] the target is unchanged. Kind of test: flow cytometry of fresh human whole blood, gated CD3+CD8+ T cells, aToso 2A5 : AF647, left panel.
The target in test [4] is recombinant human FCMR-Fc (human) (UniProt O60667). Description: SPR (Biacore), 25 C, antibody immobilised, FCMR-Fc titrated at 500 to 0 nM.
Test [5] deals with human FCMR on blood cells (human) (UniProt O60667). Description: flow cytometry of fresh human whole blood, gated CD3+CD4+ T cells, aToso 2A5 : AF647, left panel.
The target is the same in test [6]. Description: flow cytometry of fresh human whole blood, gated CD19+ B cells, aToso 2A5 : AF647, left panel.

UniProt O60667, sequence (O60667 17-390): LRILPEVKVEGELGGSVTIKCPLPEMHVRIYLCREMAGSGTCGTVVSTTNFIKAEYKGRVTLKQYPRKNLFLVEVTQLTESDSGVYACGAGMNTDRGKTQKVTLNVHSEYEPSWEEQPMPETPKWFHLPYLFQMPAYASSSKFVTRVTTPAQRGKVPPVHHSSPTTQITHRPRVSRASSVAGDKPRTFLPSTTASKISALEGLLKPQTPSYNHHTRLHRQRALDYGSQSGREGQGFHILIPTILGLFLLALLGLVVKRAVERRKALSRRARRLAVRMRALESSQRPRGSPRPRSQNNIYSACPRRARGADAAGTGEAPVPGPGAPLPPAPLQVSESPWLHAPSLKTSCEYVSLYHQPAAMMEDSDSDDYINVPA

On to Isotype Control (antibody), for which the mean fluorescence intensity in test [1] and in test [2] was 25.6 throughout.

B1: FCMR 2A5 antibody (antibody, V domains shown)
VH: EVQLVESGGDLVKPGGSLKLSCAASGFTFSSYGMSWVRQTPDKRLEWVATINSGGSSIYYPDSVKGRFTISRDNAKNTLYLQMSSLKSEDTAMYYCARHNYDSSYRYAMDYWGQGTSVTVSS
VL: DIKMTQSPSSMYASLGERVTITCKASQDINNFLSWFQQKPGKSPKTLIYRANGLVDGVPSRFSGSGSGQDYSLTISSLEYEDMGIYYCLQYDEFPPTFGGGTKLEFKR
Molecule B1 yielded a mean fluorescence intensity in test [3] of 414. In addition, in test [4], the Kd came to 7.21 nM, the koff amounted to 0.000247 s⁻¹ and the kon is 34700 M⁻¹ s⁻¹. In test [5], this molecule returned a mean fluorescence intensity of 247. In test [6], the mean fluorescence intensity stood at 960.
